Laboratory results taken from US20190300625A1 (Regeneron, published 2019).

Assays:
[1] = target: T1, hTMPRSS2 knob_mmh (W106-R255).mmh (human); assay: SPR (Biacore 4000), mAb captured by anti-mouse Fc, HMM-hTMPRSS2 as analyte, 25 C
T1 construct: also called hTMPRSS2.mmh; HMM-hTMPRSS2

[2] = target: T1, hTMPRSS2 knob_mmh (W106-R255).mmh; assay: SPR (Biacore 4000), mAb captured by anti-mouse Fc, HMM-hTMPRSS2 as analyte, 37 C
[3] = target: T2, mfTMPRSS2 knob_mmh (W106-R255).mmh (monkey); assay: SPR (Biacore 4000), mAb captured by anti-mouse Fc, HMM-mfTMPRSS2 as analyte, 25 C
T2 construct: also called mfTMPRSS2.mmh; HMM-mfTMPRSS2

[4] = target: T2, mfTMPRSS2 knob_mmh (W106-R255).mmh; assay: SPR (Biacore 4000), mAb captured by anti-mouse Fc, HMM-mfTMPRSS2 as analyte, 37 C

T2 sequence (chain, as listed by the source limits assumed): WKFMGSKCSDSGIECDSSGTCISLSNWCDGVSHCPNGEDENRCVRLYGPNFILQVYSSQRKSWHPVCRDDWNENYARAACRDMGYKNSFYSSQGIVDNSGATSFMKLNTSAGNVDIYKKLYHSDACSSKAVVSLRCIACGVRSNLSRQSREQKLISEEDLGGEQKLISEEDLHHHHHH
T1 sequence (chain, as listed by the source limits assumed): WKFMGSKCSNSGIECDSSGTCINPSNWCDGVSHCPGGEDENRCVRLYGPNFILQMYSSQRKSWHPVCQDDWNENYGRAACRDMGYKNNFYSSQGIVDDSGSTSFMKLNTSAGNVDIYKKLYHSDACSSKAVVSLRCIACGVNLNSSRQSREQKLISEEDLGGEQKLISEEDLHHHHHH

B1: H2aM7017N (antibody, V domains shown)
VH: QVQLVESGGGVVQPGRSLRLSCAASGFTFSSYGMHWVRQSPGKGLEWVAVIWNDGSYVYYADSVKGRFTISRDISKNTLFLQMNSLRAEDTAVYYCAREGEWVLYYFDYWGQGTLVTVSS
VL: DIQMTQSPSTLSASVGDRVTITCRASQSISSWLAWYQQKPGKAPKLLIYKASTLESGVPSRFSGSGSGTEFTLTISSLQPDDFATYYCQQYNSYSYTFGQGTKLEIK
notes: also called anti-TMPRSS2 monoclonal antibody (Biacore)
Kd [1]: 2.81 nM
koff [1]: 0.000745 s⁻¹
kon [1]: 265000 M⁻¹ s⁻¹
t½ [1]: 15.5 min
Kd [2]: 9.31 nM
koff [2]: 0.00323 s⁻¹
kon [2]: 347000 M⁻¹ s⁻¹
t½ [2]: 3.6 min
Kd [3]: 56 nM
koff [3]: 0.0157 s⁻¹
kon [3]: 280000 M⁻¹ s⁻¹
t½ [3]: 0.7 min
Kd [4]: 140 nM
koff [4]: 0.0512 s⁻¹
kon [4]: 366000 M⁻¹ s⁻¹
t½ [4]: 0.2 min
